Laboratory results: patent US20200338203A1 (Bicycle, published 2020)
Numbered stars: 1 amine (or outer) side, 2 acyl side, 3 side chain; on linkers, the order of the positions; unused ones are H or OH. Bridge positions count the residues as written; N and C are the ends. Square brackets hold non-standard residues; d marks the D form. Ends that are not written are not given here. 1Nal = N[C@@H](Cc1cccc2ccccc12)C(=O)O; TBMB = c1c(C[*:1])cc(C[*:3])cc1C[*:2]; hArg = N=C(N)NCCCC[C@H](N)C(=O)O; Tle = CC(C)(C)[C@H](N)C(=O)O; Aib = CC(C)(N)C(=O)O; Sar = CNCC(=O)O

B1: Compound 57 (peptide)
peptide: ADVHCPWGPFWCPVNRPGCA
modifications: linker 5-12-19 via TBMB
B2: Compound 58 (peptide)
peptide: ADVTCPWGPFWCPVNRPGCA
modifications: linker 5-12-19 via TBMB
B3: Compound 116 (peptide)
peptide: [Sar][Sar]ACP[1Nal]GPFWCPVNRP[dA]C
modifications: linker 4-11-18 via TBMB
B4: Compound 134 (peptide)
peptide: [Sar][Sar]ACP[1Nal]GPFWCPVN[hArg]P[dA]C
modifications: linker 4-11-18 via TBMB
B5: Compound 117 (peptide)
peptide: [Sar][Sar]ACPWGPF[1Nal]CPV[dA]RPGC
modifications: linker 4-11-18 via TBMB
B6: Compound 59 (peptide)
peptide: AHDVPCPWGPFWCPVNRPGCA
modifications: linker 6-13-20 via TBMB
B7: Compound 120 (peptide)
peptide: [Sar][Sar]ACP[1Nal]GPF[1Nal]CPVNRPGC
modifications: linker 4-11-18 via TBMB
B8: Compound 136 (peptide)
peptide: [Sar][Sar]ACP[1Nal]G[Aib]FWCP[Tle]N[hArg]PGC
modifications: linker 4-11-18 via TBMB
B9: Compound 123 (peptide)
peptide: [Sar][Sar]ACPWG[Aib]F[1Nal]CPVNRPGC
modifications: linker 4-11-18 via TBMB
B10: Compound 125 (peptide)
peptide: [Sar][Sar]AC[Aib][1Nal]GPFWCPVNRP[dA]C
modifications: linker 4-11-18 via TBMB
B11: Compound 122 (peptide)
peptide: [Sar][Sar]ACP[1Nal]GPFWCPVN[hArg]PGC
modifications: linker 4-11-18 via TBMB
B12: Compound 128 (peptide)
peptide: [Sar][Sar]ACP[1Nal]G[Aib]FWCPVNRP[dA]C
modifications: linker 4-11-18 via TBMB
B13: Compound 83 (peptide)
peptide: [Sar][Sar]ACPWGPAWCPVNRPGC
modifications: linker 4-11-18 via TBMB
B14: Compound 104 (peptide)
peptide: [Sar][Sar]ACPWGPFWCPVNRAGC
modifications: linker 4-11-18 via TBMB
B15: Compound 101 (peptide)
peptide: ACPWGPFWCPVARPGC
modifications: printed: Sar2-ACPWGPFWCPVARPGC; TBMB on the 3 Cys
B16: Compound 111 (peptide)
peptide: [Sar][Sar]ACPWGPFWCPVNRPAC
modifications: linker 4-11-18 via TBMB
B17: Compound 129 (peptide)
peptide: [Sar][Sar]ACP[1Nal]GPFWCP[Tle][dA]RPGC
modifications: linker 4-11-18 via TBMB
B18: Compound 96 (peptide)
peptide: [Sar][Sar]ACPWGPF[1Nal]CPVNRPGC
modifications: linker 4-11-18 via TBMB
B19: Compound 133 (peptide)
peptide: [Sar][Sar]ACP[1Nal]GPFWCPV[dA][hArg]PGC
modifications: linker 4-11-18 via TBMB
B20: Compound 131 (peptide)
peptide: [Sar][Sar]ACP[1Nal]GPFWCP[Tle]NR[Aib]GC
modifications: linker 4-11-18 via TBMB
B21: Compound 126 (peptide)
peptide: [Sar][Sar]ACP[1Nal]G[Aib]FWCP[Tle]NRPGC
modifications: linker 4-11-18 via TBMB
B22: Compound 110 (peptide)
peptide: [Sar][Sar]ACPWGPFWCPVNR[Aib]GC
modifications: linker 4-11-18 via TBMB
B23: Compound 127 (peptide)
peptide: [Sar][Sar]ACP[1Nal]G[Aib]FWCPV[dA]RPGC
modifications: linker 4-11-18 via TBMB
B24: Compound 115 (peptide)
peptide: [Sar][Sar]ACP[1Nal]GPFWCPV[dA]RPGC
modifications: linker 4-11-18 via TBMB
B25: Compound 69 (peptide)
peptide: ACPWGPFWCPVNRPGCA
modifications: linker 2-9-16 via TBMB
B26: Compound 135 (peptide)
peptide: [Sar][Sar]AC[Aib][1Nal]G[Aib]FWCPVNR[Aib]GC
modifications: linker 4-11-18 via TBMB
B27: Compound 55 (peptide)
peptide: AEGLPCPWGPFWCPVNRPGCA
modifications: linker 6-13-20 via TBMB
B28: Compound 121 (peptide)
peptide: [Sar][Sar]ACP[1Nal]GPFWCP[Tle]NRPGC
modifications: linker 4-11-18 via TBMB
B29: Compound 53 (peptide)
peptide: AGEMACPWGPFWCPVNRPGCA
modifications: linker 6-13-20 via TBMB
B30: Compound 113 (peptide)
peptide: [Sar][Sar]AC[Aib][1Nal]GPFWCPVNRPGC
modifications: linker 4-11-18 via TBMB
B31: Compound 284 (peptide)
peptide: Ac-[Sar][Sar]A[dD]DVTCP[1Nal]G[Aib]FWCP[Tle]N[hArg]PGC
modifications: linker 8-15-22 via TBMB
B32: Compound 132 (peptide)
peptide: [Sar][Sar]ACP[1Nal]GPFWCP[Tle]NRP[dA]C
modifications: linker 4-11-18 via TBMB
B33: Compound 105 (peptide)
peptide: [Sar][Sar]ACPWGPFWCPVNR[dA]GC
modifications: linker 4-11-18 via TBMB
B34: Compound 62 (peptide)
peptide: ARDDPCPWGPFWCPVNRPGCA
modifications: linker 6-13-20 via TBMB
B35: Compound 24 (peptide)
peptide: ACMNDWLCSLGWTCA
modifications: linker 2-8-14 via TBMB
B36: Compound 30 (peptide)
peptide: ACMNDWLCQLGWTCA
modifications: linker 2-8-14 via TBMB
B37: Compound 34 (peptide)
peptide: ACRVSPEYCPFGPVWCAGAAA
modifications: linker 2-9-16 via TBMB
B38: Compound 91 (peptide)
peptide: [Sar][Sar]ACPWGPYWCPVNRPGC
modifications: linker 4-11-18 via TBMB
B39: Compound 42 (peptide)
peptide: ACPWGPAWCPVRDTNCA
modifications: linker 2-9-16 via TBMB
B40: Compound 46 (peptide)
peptide: ACPWGPMWCPVNRPGCA
modifications: linker 2-9-16 via TBMB
B41: Compound 33 (peptide)
peptide: ACRVSPEYCPFGPVWCA
modifications: linker 2-9-16 via TBMB
B42: Compound 38 (peptide)
peptide: ACRVSPEYCPFGPYWCA
modifications: linker 2-9-16 via TBMB
B43: Compound 37 (peptide)
peptide: ACRVSPEYCPFGPEWCA
modifications: linker 2-9-16 via TBMB
B44: Compound 36 (peptide)
peptide: ACRVSPEYCPFGPSWCA
modifications: linker 2-9-16 via TBMB
B45: Compound 182 (peptide)
peptide: Ac-[Sar][Sar]A[dD]VTCP[1Nal]G[Aib]F[1Nal]CP[Tle]N[hArg]PGC
modifications: linker 7-14-21 via TBMB
B46: Compound 183 (peptide)
peptide: Ac-[Sar][Sar]A[dD]VTCP[1Nal]G[Aib]F[1Nal]CP[Tle]NR[Aib]GC
modifications: linker 7-14-21 via TBMB

What follows are binders tested against T1, Human EphA2 (Ecto) (Human, UniProt P29317 24-537) (assay: FP competition; competitor Compound 18).
T1 construct: extracellular domain
Description: (§1) Peptides without a fluorescent tag were tested in competition with a peptide with a fluorescent tag and a known Kd (Table 2). Peptides were diluted to an appropriate concentration in assay buffer as described in the direct binding assay with a maximum of 5% DMSO, then serially diluted 1 in 2. Five μL of diluted peptide was added to the plate followed by 10 μL of human or mouse EphA2 (Table 1) at a fixed concentration which was dependent on the fluorescent peptide used (Table 2), then 10 μL fluorescent peptide added. Measurements were conducted as for the direct binding assay, however the gain was determined prior to the first measurement.

T1 sequence (P29317 24-537): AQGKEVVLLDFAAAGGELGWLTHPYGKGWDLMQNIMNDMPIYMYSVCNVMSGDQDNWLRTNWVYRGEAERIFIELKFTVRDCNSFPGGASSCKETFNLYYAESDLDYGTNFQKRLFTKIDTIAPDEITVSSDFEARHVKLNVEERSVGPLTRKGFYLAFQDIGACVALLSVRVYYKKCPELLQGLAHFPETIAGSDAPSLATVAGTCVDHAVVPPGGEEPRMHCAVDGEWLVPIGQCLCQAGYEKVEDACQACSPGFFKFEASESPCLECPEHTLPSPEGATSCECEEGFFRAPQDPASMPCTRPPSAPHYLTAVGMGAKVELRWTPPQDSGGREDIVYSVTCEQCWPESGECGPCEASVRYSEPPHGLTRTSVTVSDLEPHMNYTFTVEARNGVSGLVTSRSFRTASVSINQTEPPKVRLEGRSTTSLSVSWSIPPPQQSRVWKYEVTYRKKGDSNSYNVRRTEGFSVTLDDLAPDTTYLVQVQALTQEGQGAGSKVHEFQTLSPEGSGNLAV

Row | Binder | Ki [nM]
1 | B1 | 0.48
2 | B2 | 1.35
3 | B3 | 2.95
4 | B4 | 1.2
5 | B5 | 53
6 | B6 | 0.54
7 | B7 | 1.4
8 | B8 | 23
9 | B9 | 63
10 | B10 | 6.4
11 | B11 | 9.55
12 | B12 | 15
13 | B13 | 199
14 | B14 | 124
15 | B15 | 293
16 | B16 | 108

Row | Binder | Ki [nM]
17 | B17 | 23
18 | B18 | 31.3
19 | B19 | 14
20 | B20 | 11
21 | B21 | 15
22 | B22 | 75
23 | B23 | 40
24 | B24 | 12.5
25 | B25 | 107
26 | B26 | 43
27 | B27 | 11.3
28 | B28 | 3.65
29 | B29 | 12.3
30 | B30 | 10
31 | B31 | 3.8
32 | B32 | 7.7

Each binder was assayed against T1, Human EphA2 (Ecto) (assay: FP competition; competitor Compound 66).
Description: as §1

Row | Binder | Ki [nM]
33 | B1 | 1.2
34 | B2 | 2.65
35 | B3 | 3.2
36 | B33 | 471
37 | B4 | 6.15
38 | B5 | 75
39 | B34 | 28
40 | B7 | 0.98
41 | B8 | 15
42 | B9 | 46
43 | B35 | 82.3
44 | B36 | 56
45 | B10 | 0.61
46 | B11 | 8
47 | B12 | 16
48 | B37 | 77.4
49 | B13 | 288
50 | B14 | 194
51 | B15 | 265
52 | B38 | 138
53 | B16 | 238

Row | Binder | Ki [nM]
54 | B17 | 15
55 | B18 | 68.1
56 | B19 | 3.7
57 | B20 | 6.8
58 | B21 | 19
59 | B22 | 140
60 | B23 | 33
61 | B24 | 1.64
62 | B39 | 316
63 | B40 | 95.8
64 | B25 | 70.1
65 | B26 | 30
66 | B27 | 6.15
67 | B28 | 2
68 | B41 | 78.5
69 | B42 | 26.5
70 | B43 | 61.2
71 | B44 | 40.5
72 | B30 | 6.6
73 | B32 | 8.7

Molecular target: T1, Human EphA2 (Ecto)
Assay: FP competition; competitor Compound 18
Remark: another data set of the same source

Row | Binder | Ki [nM]
74 | B45 | 1.16
75 | B46 | 1.02
